From patent US9441018B2, “Gene from tidal flat metagenome and a novel protein displaying both phospholipase and lipase activities” (KOREA RESEARCH INSTITUTE OF BIOSCIENCE AND BIOTECHNOLOGY, priority 2011, dated 2016)

Experiments:
[1] = Expression in E. coli BL21(DE3), Ni-NTA purification and SDS-PAGE
Method: The E. coli BL21(DE3)/pET22b(+)-MPIaG constructed in Example 4 was cultured in a liquid nutritive medium [1% (w/v) trypton, 0.5% (w/v) yeast extract, 0.5% (w/v) NaCl] containing ampicillin (100 μg/ml) until OD600 reached 0.6. IPTG (isopropyl-β-D-thiogalactopyranoside) was added to the culture solution (final conc.: 0.5 mM), followed by further culture for 12 hours. E. coli BL21(DE3)/pET22b(+)-MPIaG was obtained by centrifugation, which was suspended in binding buffer (50 mM Tris-HCl, pH 8, 500 mM NaCl, 10 mM imidazole). The cell suspension was lysed by ultrasonication. The cell lysate was centrifuged to obtain supernatant. The supernatant was loaded on Ni-NTA (nitriloteiacetic acid) column to elute phospholipase and lipase by imidazole gradient, followed by dialysis-concentration. To confirm the purified phospholipase/lipase MPIaG, SDS-PAGE (sodium dodecyl sulfate-polyacrylamide gel electrophoresis) was performed, followed by staining with Coomassie brilliant blue.

[2] = Spectrophotometric assay with para-nitrophenyl ester substrate; type: biochemical
Method: (§1) First method was pH-stat.
(§2) To investigate the enzyme activity over pH, the activities were measured in different pH buffers. […] After staying at different pH for 180 minutes, the remaining activity was measured. As a result, the enzyme activity was maintained stably in the pH range of 5˜10 (FIG. 5). Phospholipase and lipase activity over temperature was also investigated. […] The enzyme activity was still observed at 5° C. (39% of maximum activity). When the temperature was raised more than the optimum activity temperature above, the activity was decreased rapidly (FIG. 6). In addition, melting temperature was also investigated by using differential scanning calorimetry (DSC). As a result, the melting temperature was 38.5° C. (FIG. 7).
Spectrophotometric assay was also performed at room temperature to investigate the activity of MPIaG to para-nitrophenyl ester with various carbon chain lengths, the synthetic substrate. At this experiment, para-nitrophenyl butyrate (C4), para-nitrophenyl caprylate (C8), para-nitrophenyl caprate (C10), para-nitrophenyl laurate (C12), para-nitrophenyl palmitate (C16), and para-nitrophenyl stearate (C18) were used as substrates for the comparison of the activity. 5 mM Ca^2+ was added to the reaction solution. The reaction product para-nitrophenol was continuously measured for 5 minutes at OD450 using DU800 spectrophotometer (Beckman). To exclude the non-enzymatic hydrolysis value of the substrates, the activity was measured without enzyme for every measurement under different conditions, which would be the control reaction.

[3] = Melting temperature by differential scanning calorimetry (DSC); type: physicochemical
Method: as §2
So, it was expected that the structural stability was increased by calcium ion (FIG. 7).

[4] = Substrate specificity to various phospholipids, clear zone on solid media with phospholipid emulsions; type: biochemical
Method: To investigate substrate specificity to various phospholipids, the purified phospholipase/lipase MPIaG was added to the solid media respectively supplemented with various phospholipid emulsions. Then, the activity over phospholipid was investigated by comparing the size of clear zone. The phospholipid emulsion was composed of 0.5% (v/v) phospholipid substrate, 0.5% (w/v) taurocholic acid, and 20 mM CaCl2. The substrates used herein were phosphatydilcholine (PC, 99% purity), phosphatidylethanolamine (PE, 97% purity), phosphatidylserine (PS, 97% purity), phosphatidylinositol (PI, 98% purity), phosphatidylglycerol (PG, 99% purity), and phosphatidic acid (PA, 98% purity).

[5] = LC-MS of phosphatidylcholine hydrolysis products (chain length and site specificity); type: biochemical
Method: Specificity of MPIaG over the location and chain length of phospholipid was investigated. To do so, phosphatydilcholine with different carbon chain lengths (C6, C7, C8, and C14) and 1-oleoly-2-palmitoyl-phosphatidylcholine (OPPC) were used. The purified MPIaG was added to 50 mM tris buffer (pH 8.0) containing 5 mM CaCl2 and 150 mM NaCl, followed by enzyme reaction along with 1 mM substrate for 12 hours at 25° C. The reaction product was analyzed by liquid chromatography mass spectrometry (LC-MS) using Finnigan LCQ. Advantage MAX ion trap mass spectrometer (Thermo Fisher Scientific) was equipped with electrospray ionization source. HPLC isolation was performed with HILIC guard column (4×2.0 mm, Phenomenex) and Kinetex HILIC column (2.6 μm, 2.1×100 mm, Phenomenex). The moving phase A was 10 mM ammonium formate whose pH was regulated as 3.0 with formic acid. The moving phase B was acetonitrile. Gradient elution was performed at the flow rate of 0.2 ml/min as follows: 0˜10 min., 10%˜40% A (linear gradient); 10˜20 min., 70% A (isocratic). Column temperature was room temperature, and the injection volume was 10 μL. Mass spectra were obtained from m/z in the negative ion mode 100˜1200 at the maximum ion injection time of 3 microscans and 200 ms.

[6] = pH-stat / pH titration of released fatty acid (hydrolysis of triacylglyceride, olive oil, phosphatidylcholine); type: biochemical; details: for specific enzyme activity: pH 8.0, pH titrator
Method: as §1
The activity of MPIaG to hydrolyze triacylglyceride, olive oil, and phosphatidylcholine was measured by titrating free fatty acid using pH titrator (842 Tirando, Metrohm). By adding 10 mM NaOH solution, pH of the substrate emulsion was regulated to 8.0. Then, a proper amount of enzyme solution was added thereto. Excretion rate of fatty acid was measured by using pH titrator for 5 minutes. […] To exclude the non-enzymatic hydrolysis value of the substrates, the activity was measured without enzyme addition for every measurement under different conditions, which would be the control reaction.
To further investigate specificity to substrate each having different carbon length, pH titration was performed with triacylglycerides such as tributyrin (C4), tricaprylin (C8), tricaprin (C10), trilaurin (C12), tripalmitin (C16), and triolein (C18:1).

[7] = Clear zone on solid medium supplemented with phosphatydilcholine emulsion (phospholipase activity); type: biochemical; details: 0.5% phosphatydilcholine, 0.5% taurocholic acid, 20 mM CaCl2
Method: (§3) The recombinant plasmid pFosPlaG derived from the metagenome library was isolated in the solid nutritive medium supplemented with tricaprylin emulsion which has been widely used for the isolation/confirmation of lipase gene. To investigate the phospholipase activity of the gene, the purified phospholipase/lipase MPIaG was loaded on the solid medium supplemented with phosphatydilcholine emulsion [0.5% (w/v) phosphatydilcholine, 0.5% (w/v) taurocholic acid, 20 mM CaCl2], followed by observing clear zone to confirm the activity.

[8] = Clear zone on solid medium supplemented with tricaprylin emulsion (lipase activity); type: biochemical; details: solid nutritive medium
Text: When tricaprylin is decomposed by lipase, clear zone is formed. So, the colonies forming such clear zone were selected.
as §3

B1: MPIaG: catalytic domain of PlaG, SEQ. ID. NO: 5, protein having both phospholipase and lipase activities, from tidal flat metagenome (protein)
chain: LNQSDYEKAIDYGKLSAQAYDWDDYAAAHVGMGFFANIDDIKATDFATPNYVEVQSVGGYIDWWGTDGLDFKVFQNTETDDLVVAYKGTEPLSPVDWVADAEQIFGNSEQYQKAVDFARDLSAQVEQYNVQNGLTGDAAMQLSFTGHSLGGGLATASALATGREAMAFDAAGLSQGTINNLGLDIRHASKITNFNVKGDWLSDHNKQMDDTTLGSELAGIVPETKQYGNTYWLEGINDIADFGGWLVPDNNMAVDFAKSILNHAWHVYVYMLENDKFL
modifications: phospholipase/lipase MPlaG AA
- solubility of the expressed protein [1]: expressed in a water-soluble form
- temperature of maximum activity [2]: 25 °C
- temperature up to which the enzyme is active [2]: up to 40 °C
- enzyme activity, % of maximum activity ([2]; at 5° C.): 39%
- pH of maximum activity ([2]; different pH buffers): 8
- substrate chain-length preference ([2]; para-nitrophenyl esters C4-C18, 5 mM Ca^2+): para-nitrophenyl ester having long acyl straight chain
- pH range in which enzyme activity was maintained stably ([2]; remaining activity after 180 minutes at different pH): 5˜10
- highest activity, to para-nitrophenyl palmitate (C16) ([2]; room temperature, 5 mM Ca^2+, reference of the fold not stated): approximately 112 times
- specific activity compared to the full-length phospholipase/lipase PlaG ([2]; synthetic substrate): at least two times increased specific activity
- melting temperature ([3]; 0 mM calcium): 38.5 °C
- melting temperature ([3]; 2 mM calcium ion): 47.2 °C
- melting temperature ([3]; 5 mM calcium ion): 49.2 °C
- activity to phospholipid substrate (clear zone) ([4]; substrate phosphatidic acid (PA)): did not decompose
- activity to phospholipid substrate (clear zone) ([4]; substrate phosphatidylethanolamine (PE)): excellent activity
- activity to phospholipid substrate (clear zone) ([4]; substrate phosphatidylglycerol (PG)): excellent activity
- activity to phospholipid substrate (clear zone) ([4]; substrate phosphatidylserine (PS)): did not decompose
- activity to phospholipid substrate (clear zone) ([4]; substrate phosphatydilcholine (PC)): excellent activity
- hydrolase activity of phosphatydilcholine to lysophosphatidylcholine, best substrate ([5]; 1 mM substrate, 12 hours, 25° C., 5 mM CaCl2): highest to 1,2-Dioctanoyl-phosphatidylcholine (diC8PC)
- hydrolysis site on OPPC (site specificity) ([5]; OPPC, 25° C., 12 hours, LC-MS): phospholipase A1
- product 2-hexanoyl-lysophosphatidylcholine ([5]; diC6PC, LC-MS after reaction): 10.4%
- remaining substrate 1,2-dihexanoyl-phosphatidylcholine ([5]; diC6PC, LC-MS after reaction): 89.6%
- product 2-heptanoyl-lysophosphatidylcholine ([5]; diC7PC, LC-MS after reaction): 49.5%
- remaining substrate 1,2-diheptanoyl-phosphatidylcholine ([5]; diC7PC, LC-MS after reaction): 50.5%
- product 2-octanoyl-lysophosphatidylcholine ([5]; diC8PC, LC-MS after reaction): 50.4%
- remaining substrate 1,2-dioctanoyl-phosphatidylcholine ([5]; diC8PC, LC-MS after reaction): 49.6%
- product 2-myristoyl-lysophosphatidylcholine ([5]; diC14PC, LC-MS after reaction): 3.5%
- remaining substrate 1,2-dimyristoyl phosphatidylcholine ([5]; diC14PC, LC-MS after reaction): 96.5%
- substrate chain-length preference ([5]; phosphatidylcholines C6, C7, C8, C14): phospholipid having medium length acyl straight chain
- interfacial activity ([6]; as the concentration of tributyrin increased): showed interfacial activity
- specific activity by pH-stat ([6]; substrate Olive oil): 114.8 ± 11.3
- specific activity by pH-stat ([6]; substrate Tributyrin (C4)): 140 ± 6.4
- specific activity by pH-stat ([6]; substrate phosphatydilcholine): 13.4 ± 1.5
- specific enzyme activity ([6]; toward olive oil): 2957±144 Umg^−1
- specific enzyme activity ([6]; toward phosphatidylcholine): 1735±147 Umg^−1
- substrate chain-length preference ([6]; triglycerides C4-C18:1, pH titration): triglyceride having short acyl straight chain
- hydrolysis of triolein (C18:1) ([6]; triolein, not degraded by esterase): decomposed triolein
- clear zone formation on phosphatydilcholine emulsion medium [7]: clear zone was clearly formed
- clear zone formation on phosphatydilcholine emulsion medium ([7]; listed as the gene of the present invention): formed clear zone on both solid media
- clear zone formation on tricaprylin emulsion medium [8]: formed clear zone on both solid media
